Test results taken from US20160002357A1.
Where a chain is given by its changes, count along the chain named. “And” between values parts separate entries of the source, which are not always exact repeats. Equal entries are not always repeated.

B1: 20 EK-DART (bispecific antibody)
chain 1: AIQMTQSPSSLSASVGDRVTITCRASQSIGKYLNWYQQIPGKAPKLLIYTASTLQTGVPSRFSGSGSGTDFTLTIVSLQPEDFATYYCQQSFNTPRTFGQGTKVEIKGGGSGGGGEVQLVESGGGLVQPGGSLRLSCAASGFTFNTYAMNWVRQAPGKGLEWVARIRSKYNNYATYYADSVKDRFTISRDDSKNSLYLQMNSLKTEDTAVYYCVRHGNFGNSYVSWFAYWGQGTLVTVSSGGCGGGKVAALKEKVAALKEKVAALKEKVAALKE
chain 2: QAVVTQEPSLTVSPGGTVTLTCRSSTGAVTTSNYANWVQQKPGQAPRGLIGGTNKRAPWTPARFSGSLLGGKAALTITGAQAEDEADYYCALWYSNLWVFGGGTKLTVLGGGGSGGGGEVQLVQSGAEVKKPGASVKVSCKASGYTFTGYYMHWVRQAPGQGLEWMGRINPNSGGTNYAQKFQGRVTMTRDTSISTAYMELSRLRSDDTAVYYCAKGSGSGAFDIWGQGTMVTVSSGGCGGGEVAALEKEVAALEKEVAALEKEVAALEK
B2: 154 EK-DART (bispecific antibody)
chain 1: QSVLTQPPSVSAAPGQKVTISCSGSSSNIGNNYVSWYQQLPGTAPKLLIYDNNKRPSGIPDRFSGSKSGTSATLGITGLQTGDEADYYCGTWDSSLSSYVFGTGTKVTVLGGGSGGGGEVQLVESGGGLVQPGGSLRLSCAASGFTFNTYAMNWVRQAPGKGLEWVARIRSKYNNYATYYADSVKDRFTISRDDSKNSLYLQMNSLKTEDTAVYYCVRHGNFGNSYVSWFAYWGQGTLVTVSSGGCGGGKVAALKEKVAALKEKVAALKEKVAALKE
chain 2: QAVVTQEPSLTVSPGGTVTLTCRSSTGAVTTSNYANWVQQKPGQAPRGLIGGTNKRAPWTPARFSGSLLGGKAALTITGAQAEDEADYYCALWYSNLWVFGGGTKLTVLGGGGSGGGGEVQLVQSGAEVKKPGASVKVSCKASGYTFTSYGISWVRQAPGQGLEWMGWISAYNGNTNYAQKLQGRVTMTTDTSTSTAYMELRSLRSDDTAVYYCATIDTATAFDIWGQGTMVTVSSGGCGGGEVAALEKEVAALEKEVAALEKEVAALEK
B3: 178 EK-DART (bispecific antibody)
chain 1: B2 chain 1 with S98A, Y99V, T103G, V107L
chain 2: B2 chain 2 with T221N
B4: 33 EK-DART (bispecific antibody)
chain 1: B2 chain 1 with S98A
chain 2: B2 chain 2 with E119Q, V120M, T216L, D218G, T219S, A220G, T221V
B5: 179 EK-DART (bispecific antibody)
chain 1: B2 chain 1 with S26R, N52S, Y99W, T103G, V107L
chain 2: B2 chain 2 with T221N
B6: 165 EK-DART (bispecific antibody)
chain 1: B2 chain 1 with T81A, S98A
chain 2: B2 chain 2 with T221N
B7: 153 EK-DART (bispecific antibody)
chain 1: B2 chain 1 with S98G, Y99V, T103G, V107L
chain 2: B2 chain 2 with T221N, D224G
B8: 180 EK-DART (bispecific antibody)
chain 1: B2 chain 1 with L4V, S98A
chain 2: B2 chain 2 with T221N
B9: 177 EK-DART (bispecific antibody)
chain 1: B2 chain 1 with S98A
chain 2: B2 chain 2 with T221N
B10: 34 EK-DART (bispecific antibody)
chain 1: B2 chain 1 with L4V, S98A, Y99W, T103G, V107L
chain 2: B2 chain 2 with T221S
B11: 35 EK-DART (bispecific antibody)
chain 1: B2 chain 1 with S98A, Y99V, T103G, V107L
chain 2: B2 chain 2 with T221S
B12: 153 VF-DART (bispecific antibody, not shown: small tags and cut ends)
chain 1: QSVLTQPPSVSAAPGQKVTISCSGSSSNIGNNYVSWYQQLPGTAPKLLIYDNNKRPSGIPDRFSGSKSGTSATLGITGLQTGDEADYYCGTWDSSLSGVVFGGGTKLTVLGGGSGGGGEVQLVESGGGLVQPGGSLRLSCAASGFTFSTYAMNWVRQAPGKGLEWVGRIRSKYNNYATYYADSVKGRFTISRDDSKNSLYLQMNSLKTEDTAVYYCVRHGNFGNSYVSWFAYWGQGTLVTVSS
chain 2: QAVVTQEPSLTVSPGGTVTLTCRSSTGAVTTSNYANWVQQKPGQAPRGLIGGTNKRAPWTPARFSGSLLGGKAALTITGAQAEDEADYYCALWYSNLWVFGGGTKLTVLGGGGSGGGGEVQLVQSGAEVKKPGASVKVSCKASGYTFTSYGISWVRQAPGQGLEWMGWISAYNGNTNYAQKLQGRVTMTTDTSTSTAYMELRSLRSDDTAVYYCATIDTANAFGIWGQGTMVTVSS
modifications: One interchain disulfide between the Linker 2 cysteines; these linkers are left out of the letters.
B13: 154 VF-DART (bispecific antibody, not shown: small tags and cut ends)
chain 1: B12 chain 1 with G98S, V99Y, G103T, L107V
chain 2: B12 chain 2 with N221T, G224D

Experiments:
[1] = target: human soluble CD3 (human) (UniProt P07766); test: SPR Biacore 3000, antigen immobilised
Chain of human soluble CD3 (human) (P07766 23-126, chain 1 of 2): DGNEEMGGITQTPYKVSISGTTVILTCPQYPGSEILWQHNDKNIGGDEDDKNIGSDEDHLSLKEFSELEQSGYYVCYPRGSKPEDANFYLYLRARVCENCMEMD
Chain of human soluble CD3 (human) (P04234 22-105, chain 2 of 2, further chain): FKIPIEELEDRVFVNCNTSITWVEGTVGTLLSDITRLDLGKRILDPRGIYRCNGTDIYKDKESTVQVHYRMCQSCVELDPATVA

[2] = target: human soluble CD3 (human) (UniProt P07766); test: SPR Biacore
[3] = target: human soluble CD3 (human) (UniProt P07766); test: SPR Biacore pH 7.4
[4] = target: human soluble CD3 (human) (UniProt P07766); test: SPR Biacore pH 7.4, average
[5] = target: human soluble CD3 (human) (UniProt P07766); test: SPR
[6] = target: human soluble CD3 (human) (UniProt P07766); test: SPR Biacore affinity

Row | Binder | Kd [1] [nM] | koff [1] [s⁻¹] | kon [1] [M⁻¹ s⁻¹] | Kd [2] [nM] | koff [2] [s⁻¹] | kon [2] [M⁻¹ s⁻¹] | other results
1 | B1 | 5.19 | 0.00609 | 979000 |  |  |  | 
2 | B2 |  |  |  | 17.1 | 0.00768 | 456000 | 
3 | B3 |  |  |  | 23.1 | 0.00526 | 230000 | 
4 | B4 | 17.7 | 0.00403 | 228000 |  |  |  | 
5 | B5 |  |  |  | 25.8 | 0.00641 | 306000 | 
6 | B6 |  |  |  | 14.9 | 0.00417 | 278000 | 
7 | B7 |  |  |  | 15.7 | 0.00631 | 403000 | Kd [3]: 22.3 nM and 24 nM; koff [3]: 0.00618 s⁻¹ and 0.0068 s⁻¹; kon [3]: 277000 M⁻¹ s⁻¹ and 283000 M⁻¹ s⁻¹; t½ [3]: 1.76 min and 1.6 min; Kd [4]: 23.1 nM
8 | B8 |  |  |  | 15.9 | 0.0111 | 706000 | 
9 | B9 |  |  |  | 19.9 | 0.00443 | 253000 | 
10 | B10 | 22.8 | 0.00445 | 195000 |  |  |  | 
11 | B11 | 23.6 | 0.00447 | 189000 | 23.6 | 0.00447 | 189000 | Kd [5]: 17.1 nM
12 | B12 |  |  |  |  |  |  | Kd [3]: 4.65 nM and 4.77 nM; koff [3]: 0.00525 s⁻¹ and 0.00555 s⁻¹; kon [3]: 1.13e+06 M⁻¹ s⁻¹ and 1.16e+06 M⁻¹ s⁻¹; t½ [3]: 2.07 min and 1.96 min; Kd [4]: 4.71 nM; Kd [6]: 4.71 nM
13 | B13 |  |  |  |  |  |  | Kd [6]: 3.69 nM
